Source: publication PMC9179922

Biological target: Strep-tagged recombinant plasminogen activator inhibitor 1 (PAI-1) (human) (UniProt P05121)
Test: pull-down; affinity chromatography: purified Strep-tagged PAI-1 (75 µL, 100 µg/mL) immobilised on Strep-Tactin Sepharose gravity flow columns; 2.0 mL medium with untagged vitronectin loaded and incubated 1 h; six washes with Buffer W, elution with Buffer E; Western blot with densitometry

Sequence of UniProt P05121 (P05121 24-402): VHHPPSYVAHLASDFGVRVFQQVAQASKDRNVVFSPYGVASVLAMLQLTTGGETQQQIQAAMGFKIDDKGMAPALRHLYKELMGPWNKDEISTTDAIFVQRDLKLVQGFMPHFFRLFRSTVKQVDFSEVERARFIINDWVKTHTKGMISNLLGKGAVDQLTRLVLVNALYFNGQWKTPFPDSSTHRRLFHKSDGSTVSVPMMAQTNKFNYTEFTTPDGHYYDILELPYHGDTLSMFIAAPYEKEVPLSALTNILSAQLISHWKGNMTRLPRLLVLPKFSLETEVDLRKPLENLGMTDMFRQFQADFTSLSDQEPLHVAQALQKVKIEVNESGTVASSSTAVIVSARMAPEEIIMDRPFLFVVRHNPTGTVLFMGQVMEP

fold of vitronectin in the elution fraction against VTN rs704: C: 2.28 fold
Substance: untagged vitronectin isoform VTN_rs704: T (AMD risk-associated, Met400) (natural protein)
